Target: Toll-Like Receptor 2 (TLR2)
Assay: SPR

Chain of Toll-Like Receptor 2 (TLR2) (chain, as listed by the source): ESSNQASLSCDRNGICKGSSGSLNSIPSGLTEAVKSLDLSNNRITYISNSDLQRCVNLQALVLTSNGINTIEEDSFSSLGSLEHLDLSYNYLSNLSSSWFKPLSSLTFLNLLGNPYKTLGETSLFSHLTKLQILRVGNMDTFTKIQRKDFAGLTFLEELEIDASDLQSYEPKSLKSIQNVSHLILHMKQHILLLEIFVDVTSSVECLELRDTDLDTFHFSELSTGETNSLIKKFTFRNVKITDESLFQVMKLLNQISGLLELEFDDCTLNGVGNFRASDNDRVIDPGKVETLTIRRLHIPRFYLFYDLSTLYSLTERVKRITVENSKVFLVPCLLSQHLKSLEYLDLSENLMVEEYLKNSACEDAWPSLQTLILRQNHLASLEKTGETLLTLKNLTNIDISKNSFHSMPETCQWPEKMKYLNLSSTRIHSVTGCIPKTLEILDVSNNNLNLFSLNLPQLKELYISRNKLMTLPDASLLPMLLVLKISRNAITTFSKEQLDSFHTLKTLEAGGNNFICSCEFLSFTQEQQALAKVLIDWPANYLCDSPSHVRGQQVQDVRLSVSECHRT

Kd [nM] | Binder
373 | GIFKKIAGKLFKWIK (Chemically synthesized variant of AMP5) [AMP5-T7A]
834 | GIFKKITGKCFKWIK (Chemically synthesized variant of AMP5) [AMP5-L10C]
543 | GIFKKITGKLFKWIK (also called polypeptide 1) [AMP5]

Source: US20250263441A1 (published 2025)
